Test results reported in article PMC3315527 (2012).
Blank lines part the entries; values can stand above or below the binder they belong to.

Assays:
[1] = biological target: chaperone receptors within native chloroplast membranes (dynamic TIRE); test: native chloroplast membranes
OEP61 (recombinant) = biological target: T1, OEP61 (recombinant) (Arabidopsis thaliana); test: from ref 7
T1 chain: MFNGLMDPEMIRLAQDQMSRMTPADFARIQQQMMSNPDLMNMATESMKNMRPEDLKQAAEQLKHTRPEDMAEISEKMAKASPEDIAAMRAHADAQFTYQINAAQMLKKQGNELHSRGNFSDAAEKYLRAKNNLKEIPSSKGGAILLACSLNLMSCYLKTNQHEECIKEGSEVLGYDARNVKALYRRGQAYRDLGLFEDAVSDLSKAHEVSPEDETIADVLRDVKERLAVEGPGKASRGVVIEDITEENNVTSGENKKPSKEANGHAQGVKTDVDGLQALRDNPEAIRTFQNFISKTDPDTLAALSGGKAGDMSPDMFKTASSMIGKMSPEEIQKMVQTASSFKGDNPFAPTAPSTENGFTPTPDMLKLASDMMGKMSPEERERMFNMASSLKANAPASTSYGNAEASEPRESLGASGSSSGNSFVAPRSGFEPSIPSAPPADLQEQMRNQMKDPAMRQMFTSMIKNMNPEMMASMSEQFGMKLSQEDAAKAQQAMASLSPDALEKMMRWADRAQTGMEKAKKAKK

Toc64 (recombinant) = biological target: T2, Toc64 (recombinant) (Pisum sativum); test: from ref 7
T2 chain: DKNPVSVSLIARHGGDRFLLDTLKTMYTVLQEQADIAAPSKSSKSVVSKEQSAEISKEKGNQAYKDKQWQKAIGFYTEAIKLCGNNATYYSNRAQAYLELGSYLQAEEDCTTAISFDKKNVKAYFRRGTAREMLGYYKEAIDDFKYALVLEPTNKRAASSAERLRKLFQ

Kd [1]: 109 nM
Ka (OEP61 (recombinant)): 1.03e+09 M⁻¹
B1: Hsp70-1 (At5g02500), full length (natural protein)
chain: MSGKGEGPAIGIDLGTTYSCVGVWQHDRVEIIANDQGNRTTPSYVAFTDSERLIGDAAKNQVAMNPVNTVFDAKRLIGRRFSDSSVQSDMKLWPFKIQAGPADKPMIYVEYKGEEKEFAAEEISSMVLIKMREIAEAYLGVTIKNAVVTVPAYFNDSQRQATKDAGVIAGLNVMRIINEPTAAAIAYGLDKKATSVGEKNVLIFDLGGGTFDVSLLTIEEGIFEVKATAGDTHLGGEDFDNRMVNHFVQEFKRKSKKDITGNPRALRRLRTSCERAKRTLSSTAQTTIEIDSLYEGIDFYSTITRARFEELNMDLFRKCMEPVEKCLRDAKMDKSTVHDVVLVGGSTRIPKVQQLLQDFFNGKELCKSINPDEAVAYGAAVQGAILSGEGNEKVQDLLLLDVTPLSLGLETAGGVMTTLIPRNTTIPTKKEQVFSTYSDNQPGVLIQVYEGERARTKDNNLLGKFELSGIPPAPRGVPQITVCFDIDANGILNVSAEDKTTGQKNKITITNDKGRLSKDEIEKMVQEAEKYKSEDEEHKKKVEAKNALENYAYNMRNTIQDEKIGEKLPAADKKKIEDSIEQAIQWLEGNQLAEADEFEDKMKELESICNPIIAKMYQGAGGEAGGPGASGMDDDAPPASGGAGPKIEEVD

Kd [1]: 114 nM
Ka (Toc64 (recombinant)): 7.6e+08 M⁻¹
B2: Hsp90-2 (At5g56030), full length (natural protein)
chain: not shown
